Reference: article PMC11970506

Molecular target: POTRA1, 2 construct of BamA (E. coli)
Assay: SPR; Biacore T100; POTRA1, 2 immobilised by amine coupling to a CM5 chip; SurA flowed at 0 to 10 mg/ml; 25 mM MES, 150 mM NaCl, pH 6.5, 25°C

**Q.** “survival protein A (SurA), without the signal sequence (amino acids 21 to 428) (from UniProt P0ABZ6 21-428) (natural protein)” was tested. Which Kd did it give?
**A.** The Kd was 16 µM.
